Assay results: US20100143262A1, “Method for Identifying Allergenic Proteins And Peptides” (priority 2008, published 2010)

Legend:
[1] = test system: Humanized Rat Basophil Leukaemia (RBL) cells (clone RBL-703/21); assay: human RBL assay: β-hexosaminidase release of humanized RBL cells loaded with patients' serum IgE; format: cell-based; settings: percentage of 78 patients' sera triggering β-hexosaminidase release; milk components 0.3 μg/ml
Description: A scientifically approved model to test biological reactivity of molecules is induction of histamine release from human basophil granulocytes (Purohit 2005). For this purpose a rat basophil leukaemia cell line expressing the α-chain of the human FcεRI receptor (Hoffmann et al., Int Arch Allergy Immunol, Vol 126(4), p. 277-285) was used. Different milk components (n=33) including whole milk extracts from different species, milk fractions, purified natural and recombinant cow's milk proteins, and recombinant protein fragments were tested. The percentages of 78 patients whose serum IgE antibodies trigger β-hexosaminidase release of the humanized RBL cells in response to the individual milk components were determined (FIG. 3).
(§1) Sera from 78 patients who were selected according to a positive case history, positive skin-prick reactions and determination of specific IgE to cow's milk extract using the CAP-FEIA System (Phadia, Uppsala, Sweden) were used. Sera were obtained from five adults and 73 children (30 female and 43 male) from Austria, Germany, Italy, Spain and France.
Humanized Rat Basophil Leukaemia (RBL) cells (clone RBL-703/21) were incubated in microtiter plates overnight at 37° C. (7% CO2, 95% humidity) with 50 μl human sera, diluted 1:10. Afterwards cells were washed and exposed to milk components, diluted to 0.3 μg/ml protein in Tyrodes buffer containing 50% D2O and 0.1% BSA/HAS for 1 hour at 37° C. (7% CO2, 95% humidity). Spontaneous release of the cells was also evaluated. Finally, the cell supernatants were incubated with 50 μl assay solution (0.1 M citric acid or sodium citrate, pH 4.5, 160 μM 4-methyl umbelliferyl-N-acetyl-β-D-glucosaminide) in new microtiter plates at 37° C. (7% CO2, 95% humidity) for 1 h. The reactions were stopped by addition of 100 μl glycine buffer per well and the fluorescence measured at λex: 360 and λem: 465 using a fluorescence microplate reader. The specific hexosaminidase release of each sample was calculated using the formula: [(FlS−FlSp):(FlZ−FlSp)]×100 (where […] is the fluorescence of the sample; FlSp is the fluorescence of the spontaneous release and FlZ is the fluorescence of the total release).

[2] = test system: serum IgE of cow's milk allergic patients; assay: IgE binding capacity (IgE reactivity) of milk components with patients' sera; parameters: species or system human; settings: sera of cow's milk allergic patients (n=78)
Description: as §1

| IgE binding (% of patients) [2] | Molecule | biological activity (% of patients) [1] |
| --- | --- | --- |
| 8.5 % of patients | BSA_F3: recombinant fragment 3 of BSA, 200 aa, sequence in Table 1A (protein) MPQNLIKQNCDQFEKLGEYGFQNALIVRYTRKVPQVSTPTLVEVSRSLGKVGTRCCTKPESERMPCTEDYLSLWNRLCVLHEKTPVSEKVTKCCTESLVNRRPCFSALTPDETYVPKAFDEKLFTFHADICTLPDTEKQIKKQTALVELLKHKPKATEEQLKTVMENFVAFVDKCCAADDKEACFAVEGPKLVVSTQTALAHHHHHH | 8.5 % of patients |
| 48.7 % of patients | recombinant alphaS1-casein (protein, expressed in E. coli) RPKHPIKHQGLPQEVLNENLLRFFVAPFPEVFGKEKVNELSKDIGSESTEDQAMEDIKQMEAESISSSEEIVPNSVEQKHIQKEDVPSERYLGYLEQLLRLKKYKVPQLEIVPNSAEERLHSMKEGIHAQQKEPMIGVNQELAYFYPELFRQFYQLDAYPSGAWYYVPLGTQYTDAPSFSDIPNPIGSENSEKTTMPLW | 19.2 % of patients |
| 44.9 % of patients | beta-casein (protein, UniProt P02666 16-224, looked up, natural purified protein) Beta-casein: RELEELNVPGEIVESLSSSEESITRINKKIEKFQSEEQQQTEDELQDKIHPFAQTQSLVYPFPGPIPNSLPQNIPPLTQTPVVVPPFLQPEVMGVSKVKEAMAPKHKEMPFPKYPVEPFTESQSLTLTDVENLHLPLPLLQSWMHQPHQPLPPTVMFPPQSVLSLSQSKVLPVPQKAVPYPQRDMPIQAFLLYQEPVLGPVRGPFPIIV | 34.6 % of patients |
| 55.1 % of patients | recombinant beta-casein (protein, expressed in E. coli) RELEELNVPGEIVESLSSSEESITRINKKIEKFQSEEQQQTEDELQDKIHPFAQTQSLVYPFPGPIPNSLPQNIPPLTQTPVVVPPFLQPEVMGVSKVKEAMAPKHKEMPFPKYPVEPFTESQSLTLTDVENLHLPLPLLQSWMHQPHQPLPPTVMFPPQSVLSLSQSKVLPVPQKAVPYPQRDMPIQAFLLYQEPVLGPVRGPFPIIV | 10.3 % of patients |
| 50.0 % of patients | beta-lactoglobulin variant A (protein, natural purified protein) LIVTQTMKGLDIQKVAGTWYSLAMAASDISLLDAQSAPLRVYVEELKPTPEGDLEILLQKWENDECAQKKIIAEKTKIPAVFKIDALNENKVLVLDTDYKKYLLFCMENSAEPEQSLVCQCLVRTPEVDDEALEKFDKALKALPMHIRLSFNPTQLEEQCHI | 28.2 % of patients |
| 8.5 % of patients | BSA_F2: recombinant fragment 2 of BSA, 189 aa, sequence in Table 1A (protein) MARQRLRCASIQKFGERALKAWSVARLSQKEPKAEFVEVTKLVTDLTKVHKECCHGDLLECADDRADLAKYICDNQDTISSKLKECCDKPLLEKSHCIAEVEKDAIPENLPPLTADFAEDKDVCKNYQEAKDAFLGSFLYEYSRRHPEYAVSVLLRLAKEYEATLEECCAKDDPHACYSTVFDKLKHLVDEHHHHHH | 4.3 % of patients |
| 2.1 % of patients | BSA_F1: recombinant fragment 1 of BSA, 190 aa, sequence in Table 1A (protein) MRGVFRRDTHKSEIAHRFKDLGEEHFKGLVLIAFSQYLQQCPFDEHVKLVNELTEFAKTCVADESHAGCEKSLHTLFGDELCKVASLRETYGDMADCCEKQEPERNECFLSHKDDSPDLPKLKPDPNTLCDEFKADEKKFWGKYLYEIARRHPYFYAPELLYYANKYNGVFQECCQAEDKGACLLPKIETMREKVLTSSHHHHHH | 4.3 % of patients |
| 9.0 % of patients | recombinant aS2-casein (protein, expressed in E. coli) KNTMEHVSSSEESIISQETYKQEKNMAINPSKENLCSTFCKEVVRNANEEEYSIGSSSEESAEVATEEVKITVDDKHYQKALNEINQFYQKFPQYLQYLYQGPIVLNPWDQVKRNAVPITPTLNREQLSTSEENSKKTVDMESTEVFTKKTKLTEEEKNRLNFLKKISQRYQKFALPQYLKTVYQHQKAMKPWIQPKTKVIPYVRYL | 5.1 % of patients |
| 5.1 % of patients | lactoferrin (protein, UniProt P24627 20-708, looked up, natural purified protein) Lactotransferrin: APRKNVRWCTISQPEWFKCRRWQWRMKKLGAPSITCVRRAFALECIRAIAEKKADAVTLDGGMVFEAGRDPYKLRPVAAEIYGTKESPQTHYYAVAVVKKGSNFQLDQLQGRKSCHTGLGRSAGWIIPMGILRPYLSWTESLEPLQGAVAKFFSASCVPCIDRQAYPNLCQLCKGEGENQCACSSREPYFGYSGAFKCLQDGAGDVAFVKETTVFENLPEKADRDQYELLCLNNSRAPVDAFKECHLAQVPSHAVVARSVDGKEDLIWKLLSKAQEKFGKNKSRSFQLFGSPPGQRDLLFKDSALGFLRIPSKVDSALYLGSRYLTTLKNLRETAEEVKARYTRVVWCAVGPEEQKKCQQWSQQSGQNVTCATASTTDDCIVLVLKGEADALNLDGGYIYTAGKCGLVPVLAENRKSSKHSSLDCVLRPTEGYLAVAVVKKANEGLTWNSLKDKKSCHTAVDRTAGWNIPMGLIVNQTGSCAFDEFFSQSCAPGADPKSRLCALCAGDDQGLDKCVPNSKEKYYGYTGAFRCLAEDVGDVAFVKNDTVWENTNGESTADWAKNLNREDFRLLCLDGTRKPVTEAQSCHLAVAPNHAVVSRSDRAAHVKQVLLHQQALFGKNGKNCPDKFCLFKSETKNLLFNDNTECLAKLGGRPTYEEYLGTEYVTAIANLKKCSTSPLLEACAFLTR | 2.6 % of patients |
| 30.8 % of patients | human alpha-lactalbumin (protein, natural purified protein) KQFTKCELSQLLKDIDGYGGIALPELICTMFHTSGYDTQAIVENNESTEYGLFQISNKLWCKSSQVPQSRNICDISCDKFLDDDITDDIMCAKKILDIKGIDYWLAHKALCTEKLEQWLCEKL | 6.4 % of patients |
